# According to publication PMC10352241, “Structure and assembly of the NOT10:11 module of the CCR4-NOT complex” (Communications Biology, 2023):
# B1: GST-Hs NOT11-C (residues D257–D498) (domain or fragment)
# chain: not shown
# notes: human NOT11 (CNOT11), residues D257–D498; The GST tag is HRV3C-cleavable (plasmid pnEA-pG); also called GST-NOT11-C; NOT11 construct lacking the NOT11N domain; source: E. coli BL21 (DE3) Star, purified (glutathione agarose, HiTrap Q, Superdex 200); not shown: GST, N-terminal, kept
# B2: Hs NOT1-N (residues D4–N682) (domain or fragment, human, UniProt A5YKK6 4-682, looked up)
# chain: DSLSLALSQISYLVDNLTKKNYRASQQEIQHIVNRHGPEADRHLLRCLFSHVDFSGDGKSSGKDFHQTQFLIQECALLITKPNFISTLSYAIDNPLHYQKSLKPAPHLFAQLSKVLKLSKVQEVIFGLALLNSSSSDLRGFAAQFIKQKLPDLLRSYIDADVSGNQEGGFQDIAIEVLHLLLSHLLFGQKGAFGVGQEQIDAFLKTLRRDFPQERCPVVLAPLLYPEKRDILMDRILPDSGGVAKTMMESSLADFMQEVGYGFCASIEECRNIIVQFGVREVTAAQVARVLGMMARTHSGLTDGIPLQSISAPGSGIWSDGKDKSDGAQAHTWNVEVLIDVLKELNPSLNFKEVTYELDHPGFQIRDSKGLHNVVYGIQRGLGMEVFPVDLIYRPWKHAEGQLSFIQHSLINPEIFCFADYPCHTVATDILKAPPEDDNREIATWKSLDLIESLLRLAEVGQYEQVKQLFSFPIKHCPDMLVLALLQINTSWHTLRHELISTLMPIFLGNHPNSAIILHYAWHGQGQSPSIRQLIMHAMAEWYMRGEQYDQAKLSRILDVAQDLKALSMLLNGTPFAFVIDLAALASRREYLKLDKWLTDKIREHGEPFIQACMTFLKRRCPSILGGLAPEKDQPKSAQLPPETLATMLACLQACAGSVSQELSETILTMVANCSNVMN
# notes: human NOT1 (CNOT1), residues D4–N682; The purification of NOT1-N is not described; source: E. coli BL21 (DE3) Star, purified
# Tests used:
# Conditions in all cases: both partners purified
# [1] = target: T1, MBP-Hs NOT10-C (residues T351–Q707) (human, UniProt Q9H9A5 351-707); assay: pull-down; GST pulldown with recombinant proteins; GST-NOT11 constructs as bait, MBP-tagged NOT10 constructs as prey (Fig. 3b–f; human and Drosophila)
# T1 construct: human NOT10 (CNOT10), residues T351–Q707; The MBP tag is HRV3C-cleavable; no cleavage step is described; also called C-terminal portion of NOT10; source: E. coli BL21 (DE3) Star, purified (amylose resin, HiTrap Q, Superdex 200)
# [2] = target: T2, MBP-Hs NOT10-L (residues D25–Q707) (human, UniProt Q9H9A5 25-707); assay: as above
# T2 construct: human NOT10 (CNOT10), residues D25–Q707; The MBP tag is HRV3C-cleavable (plasmid pnYC-pM); no cleavage step is described; also called isolated NOT10; source: E. coli BL21 (DE3) Star, purified (amylose resin, HiTrap Q, Superdex 200)
# [3] = target: T3, NOT10:GST-NOT11 complex (Hs NOT10-L with GST-NOT11-C) (human, UniProt Q9H9A5 25-707; Q9UKZ1 257-498); assay: pull-down; purified proteins; GST-NOT11-C alone or the NOT10:GST-NOT11 complex as bait, NOT1-N as prey (Fig. 3g)
# T3 construct: human NOT10 (CNOT10), NOT10-L, residues D25–Q707, from pnYC-vM with a TEV-cleavable MBP tag; human NOT11 (CNOT11), NOT11-C, residues D257–D498; also called NOT10:NOT11 heterodimer; source: E. coli BL21 (DE3) Star, co-expressed, purified (glutathione agarose, TEV cleavage of MBP, HiTrap Heparin, Superdex 200); not shown: MBP, N-terminal, cleaved; GST, N-terminal, kept
# T3 sequence (Q9H9A5 25-707, chain 1 of 2, other chains not shown): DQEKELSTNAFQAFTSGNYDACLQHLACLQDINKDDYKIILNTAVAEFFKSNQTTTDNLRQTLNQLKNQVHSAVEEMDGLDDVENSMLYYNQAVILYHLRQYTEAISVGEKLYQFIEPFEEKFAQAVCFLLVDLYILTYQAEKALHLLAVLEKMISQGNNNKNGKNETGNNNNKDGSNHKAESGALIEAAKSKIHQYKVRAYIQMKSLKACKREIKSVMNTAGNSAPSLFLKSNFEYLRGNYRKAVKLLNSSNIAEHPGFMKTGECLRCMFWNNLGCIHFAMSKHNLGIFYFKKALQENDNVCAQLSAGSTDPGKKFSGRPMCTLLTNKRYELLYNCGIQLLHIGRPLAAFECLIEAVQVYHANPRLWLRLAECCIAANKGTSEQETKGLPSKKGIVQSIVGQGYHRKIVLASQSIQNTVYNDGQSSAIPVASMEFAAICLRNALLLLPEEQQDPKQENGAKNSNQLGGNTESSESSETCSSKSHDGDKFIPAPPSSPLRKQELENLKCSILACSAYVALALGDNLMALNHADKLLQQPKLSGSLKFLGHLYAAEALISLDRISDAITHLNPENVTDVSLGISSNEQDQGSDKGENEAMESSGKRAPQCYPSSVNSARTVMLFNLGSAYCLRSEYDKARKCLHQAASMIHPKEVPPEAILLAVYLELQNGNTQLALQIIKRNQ
# T2 sequence (Q9H9A5 25-707): as the sequence (Q9H9A5 25-707, chain 1 of 2, other chains not shown) above
# T1 sequence (Q9H9A5 351-707): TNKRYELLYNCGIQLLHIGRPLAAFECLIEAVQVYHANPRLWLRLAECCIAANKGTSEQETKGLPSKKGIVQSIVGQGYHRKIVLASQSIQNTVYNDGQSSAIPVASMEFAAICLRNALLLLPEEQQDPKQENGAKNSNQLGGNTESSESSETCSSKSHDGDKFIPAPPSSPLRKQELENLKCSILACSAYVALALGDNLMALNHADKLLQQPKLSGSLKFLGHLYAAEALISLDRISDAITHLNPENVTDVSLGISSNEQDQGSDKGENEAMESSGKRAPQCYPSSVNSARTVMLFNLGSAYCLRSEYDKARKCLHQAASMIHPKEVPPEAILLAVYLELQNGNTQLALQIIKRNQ
Binder,binding result [1],binding result [2],binding result [3]
B1,binds,binds,
B2,,,binds
